# Measured values reported in patent US20140179604A1 (U S A REPRESENTED BY THE DEPARTMENT OF VETERANS AFFAIRS, published 2014).
# Like-named read-outs stand apart in the source and are kept apart here. Non-standard residues stand in square brackets, D forms with d. No end group written: not given here. *: point of attachment. NMeY = CN[C@@H](Cc1ccc(O)cc1)C(=O)O; Agmatine = N=C(N)NCCCCN*; Nle = CCCC[C@H](N)C(=O)O; Orn = NCCC[C@H](N)C(=O)O; Abu = CC[C@H](N)C(=O)O; GABA = NCCCC(=O)O
# T1: GHRH receptor (membrane receptors of human anterior pituitary cells) (human) (UniProt Q02643)
# T1 sequence (looked up): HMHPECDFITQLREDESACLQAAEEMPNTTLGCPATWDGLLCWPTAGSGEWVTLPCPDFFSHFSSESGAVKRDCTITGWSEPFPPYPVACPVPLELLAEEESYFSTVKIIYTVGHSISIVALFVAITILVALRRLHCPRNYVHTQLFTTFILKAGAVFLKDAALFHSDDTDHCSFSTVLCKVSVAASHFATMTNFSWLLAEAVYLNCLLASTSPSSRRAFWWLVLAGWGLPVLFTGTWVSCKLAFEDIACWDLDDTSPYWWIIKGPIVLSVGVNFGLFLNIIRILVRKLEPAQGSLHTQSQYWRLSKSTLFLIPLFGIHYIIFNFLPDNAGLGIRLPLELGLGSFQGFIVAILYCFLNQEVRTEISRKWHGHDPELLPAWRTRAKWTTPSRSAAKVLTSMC
# T2: GHRH receptor (membrane receptors of human anterior pituitary cells) (human), Q02643
# T2 chain: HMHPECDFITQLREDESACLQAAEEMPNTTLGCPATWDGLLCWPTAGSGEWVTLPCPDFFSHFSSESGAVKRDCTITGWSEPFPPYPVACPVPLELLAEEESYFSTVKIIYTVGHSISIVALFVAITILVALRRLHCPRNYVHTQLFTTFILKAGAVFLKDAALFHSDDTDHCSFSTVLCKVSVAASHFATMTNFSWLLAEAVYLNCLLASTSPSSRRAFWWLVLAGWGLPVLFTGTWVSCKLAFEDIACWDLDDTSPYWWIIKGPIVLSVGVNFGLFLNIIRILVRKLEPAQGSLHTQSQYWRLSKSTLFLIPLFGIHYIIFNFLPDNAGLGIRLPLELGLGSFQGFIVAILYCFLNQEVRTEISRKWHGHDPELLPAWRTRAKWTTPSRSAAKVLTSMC
# B1: P-20356 [N-Me-Tyr^1, Gln^8, Orn^12, Abu^15, Orn^21, Nle^27, Asp^28, Agm^29]hGHRH(1-29)NH2 (peptide, from a related filing)
# peptide: [NMeY]ADAIFTQSYR[Orn]VL[Abu]QLSAR[Orn]LLQDI[Nle]D[Agmatine]
# modifications: not fully specified (C-terminus)
# B2: P-29703 [N-Me-Tyr^1, Gln^8, Orn^12, Abu^15, Orn^21, Nle^27, Gln-Gab^30]hGHRH(1-30)NH2 (peptide)
# chain: [NMeY]ADAIFTQSYR[Orn]VL[Abu]QLSAR[Orn]LLQDI[Nle]SRQ[GABA]-NH2
# modifications: N-terminus assumed
# SMILES: CCCC[C@H](NC(=O)[C@@H](NC(=O)[C@H](CC(=O)O)NC(=O)[C@H](CCC(N)=O)NC(=O)[C@H](CC(C)C)NC(=O)[C@H](CC(C)C)NC(=O)[C@H](CCCN)NC(=O)[C@H](CCCNC(=N)N)NC(=O)[C@H](C)NC(=O)[C@H](CO)NC(=O)[C@H](CC(C)C)NC(=O)[C@H](CCC(N)=O)NC(=O)[C@H](CC)NC(=O)[C@H](CC(C)C)NC(=O)[C@@H](NC(=O)[C@H](CCCN)NC(=O)[C@H](CCCNC(=N)N)NC(=O)[C@H](Cc1ccc(O)cc1)NC(=O)[C@H](CO)NC(=O)[C@H](CCC(N)=O)NC(=O)[C@@H](NC(=O)[C@H](Cc1ccccc1)NC(=O)[C@@H](NC(=O)[C@H](C)NC(=O)[C@H](CC(=O)O)NC(=O)[C@H](C)NC(=O)[C@H](Cc1ccc(O)cc1)NC)[C@@H](C)CC)[C@@H](C)O)C(C)C)[C@@H](C)CC)C(=O)N[C@@H](CO)C(=O)N[C@@H](CCCNC(=N)N)C(=O)N[C@@H](CCC(N)=O)C(=O)NCCCC(N)=O
# Experiments:
# [1] = molecular target: T1, GHRH receptor (membrane receptors of human anterior pituitary cells) (human); test: competition with 125I-JV-1-42, human pituitary membranes
# [2] = molecular target: T1, GHRH receptor (membrane receptors of human anterior pituitary cells) (human); test: as above; remark: listed apart in the source
# [3] = molecular target: T1, GHRH receptor (membrane receptors of human anterior pituitary cells) (human); test: competition with 125I-[His1,Nle27]hGHRH(1-32)NH2, human pituitary membranes
# [4] = molecular target: T2, GHRH receptor (membrane receptors of …); test: competition with 125I-JV-1-42, human pituitary membranes
Binder,IC50 [1] [nM],Relative affinity (Binding potency) vs GHRH (GHRH(1-29) = 1) [1],Relative affinity (Binding potency) vs JI-38 [1] [JI-38 = 1],IC50 [2] [nM],Relative affinity (Binding potency) vs JI-38 [2] [JI-38 = 1],IC50 [3] [nM],Relative affinity (Binding potency) compared to JI-38 [3] [JI-38 = 1],Relative affinity (Binding potency) compared to hGHRH(1-29) (hGHRH(1-29)NH2 = 1) [3],IC50 [4] [nM],Relative affinity (Binding potency) vs JI-38 [4] [JI-38 = 1]
B1,0.01,406,171,0.27,16.1,1.02,2.69,7.5,–,–
B2,–,–,–,–,–,–,–,–,1.22,3.57
